Laboratory results taken from patent US20240164355A1 (VANDERBILT UNIVERSITY, published 2024).

B1: His6-CinA (CinA^wPip, wPa_0294, His6-tagged) (other)
chain: MESGLDHNYNKILDILKGAIKGDDNQVKARKHLRVERWLRAYIQLIEDFDEEKLIFFSDIFSDNSCWDGIKLKNKAVGERLTEEKNKNGKENPLDLADRYYLACKYCLEDKIPGLFEQVFMRFKRSAFEEDGSDDDLRRELLENIEETSPIEAFWSFLIDKQIGKLNEYKSVEGLQKSIQINSNKNWEEGIEFFYNKLHNDSSISSQDKDDLLIEAALSAVKGYKEVDTIEFCLSKMDDEQKKKLLDRDYKENTYYAVLNVLVGQYYFDSFMELSRLCSQIECERYTTFLSSLSDQVLKNPDLSEETKKCMMNVWERIIKLKTQDRGEQSISSIFVDYSVTYTIANLIVDPSRQGVSKEEILGKILKHVKEMSGEEMIKVKDSVLSKIQLFHGGKKLQLGEQVFSKLAQEASKESILREAGDTLPQSSLSTTDTPYNIKSLSHSK
B2: His6-CidA (CidA^wPip, wPa_0282, N-terminally His6-tagged) (other)
chain: MPTQKELRDTMSKKLQEAIKHPDPAVVAGRKSAIKRWVGVLQDNFMEHIKYFKGDKLKFLHNVFQDEGCWSGVRLDNAALGQRFTEEKIGGIDNPLRKYEMACSYCVVDKIHPLFQKRFESYRNKFPPGAFDGKTETEFGKYVRNSLLDSIKRKGPVFDFWIDRESGELKKYDAVEGFDSAVKFKWSEGVEYFYNHLKEEDKEKKLTEAILALSRVQSVEKDAPILDFCVNKIVDKDTLLQKLSQKDKGVYSLFAELIESCFFDTVHDLVQCWCYKEVSAGGDHSEKIFSQRDYELFLSSLSDTMLKNPELSVQARSLIMEFWECGSLYQYRKAAVNTSNYTVPTSGVFAELIVNWRREDIYKTDEEKEIEKKEILDMMSFAKDCFPEKFELFKKLIIRDLRLCGREGKRVNVDYGLFAEELFSELEKTILPPGPVGDGPCSNLRSRSKAHGSKKTTLPVDDSPQSELGTPSVSGVSSYKKKSVFTLSGNK
notes: also called His6-tagged CidA; antidote

Columns and labels:
[1] = biological target: T1, CinB (CinB^wPip, wPa_0295), co-expressed with His6-CinA from the full operon in E. coli (Wolbachia pipientis, wPip strain); test: summary of the pulldown experiments of Example 2
T1 construct: also called putative DUF1703 nuclease
T1 chain: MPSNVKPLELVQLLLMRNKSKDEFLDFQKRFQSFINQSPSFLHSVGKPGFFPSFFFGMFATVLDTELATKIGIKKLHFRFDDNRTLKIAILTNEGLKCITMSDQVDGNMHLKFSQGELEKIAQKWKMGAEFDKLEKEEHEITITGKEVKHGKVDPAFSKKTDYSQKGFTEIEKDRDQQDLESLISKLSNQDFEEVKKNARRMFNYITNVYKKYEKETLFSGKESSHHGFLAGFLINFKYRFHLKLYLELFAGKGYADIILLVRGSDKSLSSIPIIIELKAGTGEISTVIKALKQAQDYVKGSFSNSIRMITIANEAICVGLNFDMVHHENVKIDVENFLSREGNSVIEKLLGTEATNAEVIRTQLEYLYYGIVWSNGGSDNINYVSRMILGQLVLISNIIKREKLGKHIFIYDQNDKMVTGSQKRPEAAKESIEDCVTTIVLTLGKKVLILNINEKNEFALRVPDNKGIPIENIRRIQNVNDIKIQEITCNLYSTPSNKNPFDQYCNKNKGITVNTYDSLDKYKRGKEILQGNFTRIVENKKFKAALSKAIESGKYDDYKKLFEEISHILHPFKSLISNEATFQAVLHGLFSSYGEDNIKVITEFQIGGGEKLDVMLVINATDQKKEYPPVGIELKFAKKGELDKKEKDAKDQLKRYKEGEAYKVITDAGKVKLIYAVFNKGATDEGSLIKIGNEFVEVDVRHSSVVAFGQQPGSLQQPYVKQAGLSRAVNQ

[2] = biological target: T2, CidB (CidB^wPip, wPa_0283), co-expressed with His6-CidA from the full operon in E. coli (Wolbachia pipientis, wPip strain); test: summary of the pulldown experiments of Example 2
T2 construct: also called toxin
T2 chain: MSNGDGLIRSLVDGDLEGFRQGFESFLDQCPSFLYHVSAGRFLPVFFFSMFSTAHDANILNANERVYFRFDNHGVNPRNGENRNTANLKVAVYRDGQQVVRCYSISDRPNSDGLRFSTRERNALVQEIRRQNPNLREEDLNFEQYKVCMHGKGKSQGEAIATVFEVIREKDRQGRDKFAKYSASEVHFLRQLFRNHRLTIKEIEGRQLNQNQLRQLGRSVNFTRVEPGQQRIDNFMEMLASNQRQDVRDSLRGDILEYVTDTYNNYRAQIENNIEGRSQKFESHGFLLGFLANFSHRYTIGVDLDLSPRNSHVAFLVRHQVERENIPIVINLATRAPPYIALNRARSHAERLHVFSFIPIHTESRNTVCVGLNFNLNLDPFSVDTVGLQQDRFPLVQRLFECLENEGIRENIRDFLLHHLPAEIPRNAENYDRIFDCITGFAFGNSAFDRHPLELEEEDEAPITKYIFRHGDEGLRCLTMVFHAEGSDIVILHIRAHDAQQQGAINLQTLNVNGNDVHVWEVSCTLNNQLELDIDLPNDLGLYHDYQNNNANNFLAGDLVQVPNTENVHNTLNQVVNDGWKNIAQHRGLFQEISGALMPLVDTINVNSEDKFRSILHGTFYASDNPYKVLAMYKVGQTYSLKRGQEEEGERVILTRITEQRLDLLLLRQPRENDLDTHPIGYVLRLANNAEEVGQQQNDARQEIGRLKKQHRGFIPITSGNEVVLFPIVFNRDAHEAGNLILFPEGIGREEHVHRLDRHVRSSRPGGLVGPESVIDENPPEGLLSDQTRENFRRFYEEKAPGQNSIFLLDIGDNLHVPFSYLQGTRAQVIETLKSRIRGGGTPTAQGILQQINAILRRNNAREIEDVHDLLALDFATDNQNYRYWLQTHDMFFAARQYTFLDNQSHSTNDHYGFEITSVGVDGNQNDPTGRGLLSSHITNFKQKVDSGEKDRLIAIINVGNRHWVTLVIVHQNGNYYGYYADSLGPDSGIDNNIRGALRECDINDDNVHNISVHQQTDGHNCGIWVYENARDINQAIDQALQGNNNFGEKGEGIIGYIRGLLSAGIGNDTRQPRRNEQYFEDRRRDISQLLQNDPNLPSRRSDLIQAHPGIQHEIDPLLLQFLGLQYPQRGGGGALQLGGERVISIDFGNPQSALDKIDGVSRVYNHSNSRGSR

Binder	binding result [1]	binding result [2]
B1	binds	–
B2	–	binds
